{"source": "patent US20230272390A1", "about": "“COMPOSITIONS AND METHODS FOR HEMOGLOBIN PRODUCTION” (THE CHILDREN'S HOSPITAL OF PHILADELPHIA, priority 2020, published 2023)", "system": "negative control oligo (shares 7/17 bp with the consensus motif)", "test": "Fluorescence polarization DNA binding assay, negative control oligo", "details": "same conditions", "experimental": "The fragment of Human ZNF410 (NP_001229855.1) comprising of five zinc finger domains ZF1-5 (residues 217-366) was cloned into pGEX-6P-1 vector with a GST fusion tag (pXC2180). The plasmid was transformed into Escherichia coli strain BL21-Codon-plus(DE3)-RIL (Stratagene). Bacteria was grown in LB broth in a shaker at 37° C. until reaching the log phase (A600 nm between 0.4 and 0.5), the shaker temperature was then set to 16° C. and 25 μM ZnCl2 was added to the cell culture. When the shaker temperature reached 16° C. and A600 nm reached ˜0.8, the protein expression was induced by the addition of 0.2 mM isopropyl-3-D-thiogalactopyranoside with subsequent growth for 20 hours at 16° C. […]\nFluorescence polarization (FP) method was used to measure the binding affinity using a Synergy™ 4 Microplate Reader (BioTek). […]\nTo further gain insight into the molecular basis of how the ZNF410 tandem ZF domain recognizes its targeting DNA sequence, crystallization of the ZNF410-DNA complex was performed. The binding affinity of the ZNF410 ZF domain (ZF1-5) with the consensus motif was quantified by fluorescence polarization using purified GST fusion protein (Patel, et al. (2016) Methods Enzymol., 573:387-401). […]"}
{"molecule": "ZF1-5: fragment of human ZNF410 comprising five zinc finger domains ZF1-5 (residues 217-366); dominant-negative when overexpressed (protein, left off: small tags and cut ends, fragment of human ZNF410 comprising five zinc finger domains ZF1-5 (residues 217-366); dominant-negative when overexpressed) KKLKCTVEGCDRTFVWPAHFKYHLKTHRNDRSFICPAEGCGKSFYVLQRLKVHMRTHNGEKPFMCHESGCGKQFTTAGNLKNHRRIHTGEKPFLCEAQGCGRSFAEYSSLRKHLVVHSGEKPHQCQVCGKTFSQSGSRNVHMRKHHLQLG", "values": [{"measurement": "binding to the negative control oligo", "result": "no measurable binding"}]}
